We go through 23 molecules from patent US20220282255, “APTAMER FOR TGF-BETA1 AND USE OF SAME” (RIBOMIC INC., published 2022).

Series [1] concerns the target T1, TGF-β1 (Homo sapiens, UniProt P01137 P01137:279-390). Nature of the series: SPR; ++. The note with it: tags: Recombinant Human TGF-β1, Peprotech; chain copies: 2 (homodimer, inferred). A general note: Surface plasmon resonance follows binding to a sensor surface in real time, without labels.
Series [2] deals with T1, TGF-β1. The series can be described thus: SPR; receptor-binding inhibition, 4 nM:4 nM. The note with it: tags: Recombinant Human TGF-β1, Peprotech; chain copies: 2 (homodimer, inferred). The procedure:
(§1) Measurement of Inhibitory Activity of Aptamer Against TGF-β1-2 Whether or not the nucleic acids of SEQ ID NOs: 6, 9, 19, 21, 26 inhibit the binding of TGF-β1 to the TGF-β receptor was evaluated by surface plasmon resonance method. For the measurement, Biacore T200 manufactured by GE Healthcare was used, and the measurement was performed by the method shown below. About 1500 RU of protein A was immobilized on the surface of a sensor chip of CM4 chip by using an amine coupling kit. 20 μL of Fc fusion TRII receptor (R&D) adjusted to 30 nM was injected as an analyte at a flow rate of 20 μL/min. As a result, the Fc fusion TRII receptor was immobilized on the surface of the sensor chip of the CM4 chip via protein A. Furthermore, a mixed solution of TGF-β1 (4 nM) or TGF-β1 (10 nM), and nucleic acid (30 nM) was injected. Solution A was used as the running buffer. Based on the RU value of a sample injected with TGF-β1 alone and the RU value before injection of TGF-β1, the effect of suppressing an increase in the RU value when TGF-β1 was injected in the presence of nucleic acid was calculated as the effect of inhibiting the binding of TGF-β1 to the TRII receptor.
The nucleic acids of SEQ ID NOs: 42(2-1)-42(2-8) used were chemically synthesized and purified by HPLC. Whether or not these nucleic acids inhibit the binding of TGF-β1 to the TGF-β receptor was determined by injecting a mixed solution of TGF-β1 (4 nM) and nucleic acid (4 nM) in the same manner as in Example 4, and evaluating by the surface plasmon resonance method. Whether or not these nucleic acids inhibit the activity of TGF-β1 was evaluated by adding to the final concentrations of TGF-β1 (80 pM) and nucleic acid (312.5 pM), and by a luciferase reporter assay as in Example 4.

For series [3], the target named is T1, TGF-β1. Nature of the series: cell_activity; 80 pM:312.5 pM. The note with it: tags: Recombinant Human TGF-β1, Peprotech; chain copies: 2 (homodimer, inferred). The procedure: Whether the nucleic acids of SEQ ID NOs: 4-13, 17-22, 26-28 inhibit the activity of TGF-β1 was evaluated by a cell assay system that monitors Smad signaling pathway known to be activated by the stimulation of TGF-β. To be specific, photinus luciferase equipped with SBE (Smad-binding element) in the promoter region was used as a reporter (pGL4.48[luc2P/SBE/Hygro] Vector, Promega KK). Together with this SBE-induced photinus luciferase reporter plasmid, a renillaluciferase expression plasmid (pGL4.74[hRluc/TK] Vector, Promega KK) was mixed at a ratio of 20:1 as a standardized control for transfection efficiency, and transfected into HEK293 cells. The transfected HEK293 cells were re-seeded in a 96-well plate and cultured until confluent. […] Thereafter, the expression levels of photinus luciferase and renillaluciferase were confirmed using Dual-Luciferase (registered trade mark) Reporter Assay System (Promega KK). The measurement value of photinus luciferase in each sample was corrected with the measured value of renillaluciferase, and the relative expression level of each sample was calculated by setting the ratio of photinus luciferase and renillaluciferase in a sample free of addition of TGF-β1 as 1. […] When a nucleic acid pool of 35N, 40N or 50N (SEQ ID NO: 14, 1, 23) was used as a negative control and a known TGF-β antibody (R&D, MAB1835) was used as a positive control, the same treatment and measurement were performed.
The nucleic acids of SEQ ID NOs: 42(2-1)-42(2-8) used were chemically synthesized and purified by HPLC. Whether or not these nucleic acids inhibit the binding of TGF-β1 to the TGF-β receptor was determined by injecting a mixed solution of TGF-β1 (4 nM) and nucleic acid (4 nM) in the same manner as in Example 4, and evaluating by the surface plasmon resonance method.

For series [4], the target named is T1, TGF-β1. The series can be described thus: SPR; receptor-binding inhibition, 4 nM:4 nM. To be noted: tags: Recombinant Human TGF-β1, Peprotech; chain copies: 2 (homodimer, inferred). The procedure: as §1
The nucleic acids of SEQ ID NOs: 42-48 used were chemically synthesized and purified by HPLC. Whether or not these nucleic acids inhibit the binding of TGF-β1 to the TGF-β receptor was determined by injecting a mixed solution of TGF-β1 (4 nM) and nucleic acid (4 nM) in the same manner as in Example 4, and evaluating by the surface plasmon resonance method.
The source holds these as a separate data set.

For series [5], the target named is T1, TGF-β1. The series can be described thus: cell_activity; 80 pM:312.5 pM. The note with it: tags: Recombinant Human TGF-β1, Peprotech; chain copies: 2 (homodimer, inferred). How it is done:
(§2) Whether the nucleic acids of SEQ ID NOs: 4-13, 17-22, 26-28 inhibit the activity of TGF-β1 was evaluated by a cell assay system that monitors Smad signaling pathway known to be activated by the stimulation of TGF-β. To be specific, photinus luciferase equipped with SBE (Smad-binding element) in the promoter region was used as a reporter (pGL4.48[luc2P/SBE/Hygro] Vector, Promega KK). Together with this SBE-induced photinus luciferase reporter plasmid, a renillaluciferase expression plasmid (pGL4.74[hRluc/TK] Vector, Promega KK) was mixed at a ratio of 20:1 as a standardized control for transfection efficiency, and transfected into HEK293 cells. The transfected HEK293 cells were re-seeded in a 96-well plate and cultured until confluent. TGF-β1 and a mixture of nucleic acid aptamers of SEQ ID NOs: 4-13, 17-22, 26-28 synthesized using T7 RNA polymerase (Y639F) were added thereto to respective final concentrations of 80 pM, 20 nM, and the cells were cultured for 3 hr. Thereafter, the expression levels of photinus luciferase and renillaluciferase were confirmed using Dual-Luciferase (registered trade mark) Reporter Assay System (Promega KK). The measurement value of photinus luciferase in each sample was corrected with the measured value of renillaluciferase, and the relative expression level of each sample was calculated by setting the ratio of photinus luciferase and renillaluciferase in a sample free of addition of TGF-β1 as 1. […] When a nucleic acid pool of 35N, 40N or 50N (SEQ ID NO: 14, 1, 23) was used as a negative control and a known TGF-β antibody (R&D, MAB1835) was used as a positive control, the same treatment and measurement were performed.
Whether or not these nucleic acids inhibit the activity of TGF-β1 was evaluated by adding to the final concentrations of TGF-β1 (80 pM) and nucleic acid (312.5 pM), and by a luciferase reporter assay as in Example 4.
This is another data set of the same source.

Series [6] deals with T1, TGF-β1. Nature of the series: cell_activity; SBE-luciferase HEK293, 80 pM:20 nM. The note with it: tags: Recombinant Human TGF-β1, Peprotech; chain copies: 2 (homodimer, inferred). The procedure:
as §2

Series [7] deals with T1, TGF-β1. The series can be described thus: cell_activity; 80 pM:20 nM. To be noted: tags: Recombinant Human TGF-β1, Peprotech; chain copies: 2 (homodimer, inferred); G4 (predicted). The procedure:
as §2
Whether or not these nucleic acids inhibit the activity of TGF-β1 was evaluated by a luciferase reporter assay similar to that in Example 4, as in Example 1.

T1 sequence (P01137 279-390, one chain of several): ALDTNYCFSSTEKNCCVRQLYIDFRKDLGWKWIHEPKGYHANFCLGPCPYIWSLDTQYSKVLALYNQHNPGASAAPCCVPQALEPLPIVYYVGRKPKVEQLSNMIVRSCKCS

B1: SEQ ID NO: 20 (ssRNA)
RNA: GGGAGAACUUGGAGCUGGUCCGGAAACUGGAUUCUCUCUAAAAGGGGUACCAGUGCGACGUCAGUC
modifications: 2'-F all pyrimidines (U,C)
B1: the binding result with TGF-β1 [1] is “binds”.

B2: SEQ ID NO: 28 (ssRNA)
RNA: GGGAAUGCACUAGUGUUCAAUAAACACUAAGUGAUCCUCCUGCAAGCUAUGAAGAACUUAACGGCUCGUAAAGCUUGCACGUCGAGUCAG
modifications: 2'-F all pyrimidines (U,C)
For the molecule B2, the binding result with TGF-β1 [1] is “binds”.

On to GGCAUAAGGGAGGGGAGACUUGUGGAGGGCAAG (ssRNA, 2'-OMe at A4, A11; 2'-F all pyrimidines) [SEQ ID NO: 42(2-3)], for which the binding signal with TGF-β1 [2] was 70.7 % inhibition. Further, in the series with TGF-β1 [3], the activity is 66 % inhibition.

GGCAUAAGGGCGGGGAGACUUGUGGAGGGCAAG (ssRNA, 2'-F all pyrimidines (U,C)) [SEQ ID NO: 44]: the binding signal with TGF-β1 [4] turned out to be 98.7 % inhibition. In addition, the activity with TGF-β1 [5] is 69.4 % inhibition.

In the case of GGCAUAAGGGAGGGGAGACUUGUGGAGGGCAAG (ssRNA, 2'-OMe at A11, A16; 2'-F all pyrimidines) [SEQ ID NO: 42(2-4)], the binding signal with TGF-β1 [2] is 84.2 % inhibition. Besides, in the series with TGF-β1 [3], the activity was 64 % inhibition.

Regarding GGCAUAAGGGAGGGGAGACUUGUGGUGGGCAAG (ssRNA, 2'-F all pyrimidines (U,C)) [SEQ ID NO: 45], the binding signal with TGF-β1 [4] is 99.2 % inhibition. For the same molecule, the activity with TGF-β1 [5] was found to be 65.5 % inhibition.

As to GGCAUAAGGGCGGGGAGACUUGUGGUGGGCAAG (ssRNA, 2'-F all pyrimidines (U,C)) [SEQ ID NO: 47], the binding signal with TGF-β1 [4] came out at 99.2 % inhibition. For the same molecule, the activity with TGF-β1 [5] amounted to 70.3 % inhibition.

Take GGCAUAAGGGAGGGGAGACUUGUGGAGGGCAAG (ssRNA, 2'-OMe at A11, A32; 2'-F all pyrimidines) [SEQ ID NO: 42(2-7)]: the binding signal in the series with TGF-β1 [2] came out at 78.9 % inhibition. For the same molecule, the activity in the series with TGF-β1 [3] amounted to 78 % inhibition.

Turning to GGCAUAAGGGAGGGGAGACUUGUGGAGGGCAAG (ssRNA, 2'-OMe at A11, A26; 2'-F all pyrimidines) [SEQ ID NO: 42(2-1)], the binding signal with TGF-β1 [2] turned out to be 75.2 % inhibition. The activity with TGF-β1 [3] worked out at 61 % inhibition.

As for GGCAUAAGGGAGGGGAGACUUGUGGAGGGCAAG (ssRNA, 2'-OMe at A11, G33; 2'-F all pyrimidines) [SEQ ID NO: 42(2-8)], the binding signal with TGF-β1 [2] was 83 % inhibition. Further, in the series with TGF-β1 [3], the activity stood at 72 % inhibition.

Consider GGCAUAAGGGAGGGGAGACUUGUGGAGGGCAAG (ssRNA, 2'-OMe at A11, A31; 2'-F all pyrimidines) [SEQ ID NO: 42(2-6)], for which, in the series with TGF-β1 [2], the binding signal amounted to 81.8 % inhibition. Moreover, the activity with TGF-β1 [3] is 72 % inhibition.

Regarding GGCAUAAGGGUGGGGAGACUUGUGGAGGGCAAG (ssRNA, 2'-F all pyrimidines (U,C)) [SEQ ID NO: 43], the binding signal with TGF-β1 [4] stood at 99 % inhibition. Besides, the activity in the series with TGF-β1 [5] amounted to 71.5 % inhibition.

For the molecule GGCAUAAGGGAGGGGAGACUUGUGGCGGGUAAA (ssRNA, 2'-F all pyrimidines (U,C)) [SEQ ID NO: 48], the binding signal in the series with TGF-β1 [4] was found to be 93.5 % inhibition. Besides, the activity in the series with TGF-β1 [5] came out at 63.9 % inhibition.

Turning to GGCAUAAGGGAGGGGAGACUUGUGGAGGGCAAG (ssRNA, 2'-OMe at G1, A11; 2'-F all pyrimidines) [SEQ ID NO: 42(2-2)], in the series with TGF-β1 [2], the binding signal was 76 % inhibition. Also, in the series with TGF-β1 [3], the activity worked out at 66 % inhibition.

Turning to GGCAUAAGGGAGGGGAGACUUGUGGAGGGCAAG (ssRNA, 2'-OMe at A11, G17; 2'-F all pyrimidines) [SEQ ID NO: 42(2-5)], the binding signal with TGF-β1 [2] turned out to be 75.6 % inhibition. Moreover, in the series with TGF-β1 [3], the activity is 62 % inhibition.

Turning to GGCAUAAGGGUGGGGAGACUUGUGGUGGGCAAG (ssRNA, 2'-F all pyrimidines (U,C)) [SEQ ID NO: 46], the binding signal with TGF-β1 [4] was determined as 99.2 % inhibition. The activity with TGF-β1 [5] came out at 57.3 % inhibition.

B3: SEQ ID NO: 5 (ssRNA)
RNA: GGGAUCCGCAUCUAGAGUACAUCGUGGCGGGAAAGCCGCCCCAUUCUCUCGGGUCCUAGAAACGUCUACUGAAGCUAUCA
modifications: 2'-F all pyrimidines (U,C)
As to B3, the binding result in the series with TGF-β1 [1] is given as “binds”.

B4: SEQ ID NO: 19 (ssRNA)
RNA: GGGAGAACUUGGAGCUCCCCCUCGCAUUCGGAUUAAUUUGUGACUGCAUUGAGUGCGACGUCAGUC
modifications: 2'-F all pyrimidines (U,C)
Regarding B4, the activity with TGF-β1 [6] worked out at 91 % inhibition.

B5: SEQ ID NO: 18 (ssRNA)
RNA: GGGAGAACUUGGAGCUCCCCCUCGCACUUAAUGGGUUCUGUGGCUGGAGAAAGUGCGACGUCAGUC
modifications: 2'-F all pyrimidines (U,C)
On to B5, for which the binding result in the series with TGF-β1 [1] was “binds”.

B6: SEQ ID NO: 4 (ssRNA)
RNA: GGGAUCCGCAUCUAGAGUACUAAGGGUGGGGAGACUUGGGCCGGGCAGUCAGACGCGUGAAACGUCUACUGAAGCUAUCA
modifications: 2'-F all pyrimidines (U,C)
Consider B6, for which, in the series with TGF-β1 [6], the activity was 63 % inhibition.

B7: SEQ ID NO: 22 (ssRNA)
RNA: GGGAGAACUUGGAGCUUGACGGCGCUACAUUAUGCUCCAACGGUACUUUAUAGUGCGACGUCAGUC
modifications: 2'-F all pyrimidines (U,C)
Consider B7, for which the binding result with TGF-β1 [1] is reported as “binds”.

B8: SEQ ID NO: 36 (ssRNA)
RNA: GGGAGAACUUGGAGCUCCUGAAUAAGGGAGGGGAGACUUGUGGAGGGCAAAAGUGCGACGUCAGUC
modifications: 2'-F all pyrimidines (U,C)
In the case of B8, the activity in the series with TGF-β1 [7] is 101 % inhibition.

B9: SEQ ID NO: 11 (ssRNA)
RNA: GGGAUCCGCAUCUAGAGUACCGCGUGAGCGGCGUCUUGCUAUGACGUAAAGAAUCGUUACAACGUCUACUGAAGCUAUCA
modifications: 2'-F all pyrimidines (U,C)
For B9, the binding result in the series with TGF-β1 [1] was “binds”.
